Consider three proteins from patent US7727950B2, “Methods and reagents for assaying protein kinase activity” (The University of Dundee, priority 2002, dated 2010).

Substrate in data set [1]: CC(C)C[C@H](NC(=O)[C@@H](NC(=O)[C@H](CCCNC(=N)N)NC(=O)[C@H](C)NC(=O)[C@@H](N)CCCNC(=N)N)[C@@H](C)O)C(=O)N[C@@H](CO)C(=O)N[C@@H](Cc1ccccc1)C(=O)N[C@@H](C)C(=O)N[C@@H](CCC(=O)O)C(=O)N1CCC[C@H]1C(=O)NCC(=O)O
The data set is described as follows: Kinetic parameters for peptide phosphorylation, radioactive filter-binding assay. It is filed as biochemical, human. The following applies: other: PRAK; Standard Substrate = …; 30.0 °C. The text has this: (§1) Apart from the AMP-activated protein kinase (AMPK, a gift from Drs S. Hawley and D. G. Hardie), cGMP-dependent protein kinase (PKG, a generous gift from Drs Susan Lohmann and Ulrich Walter, University of Wurzburg, Germany) and the catalytic subunit of cyclic AMP-dependent protein kinase (PKA, a gift from Dr C. Smythe), which were isolated from rat liver, bovine lung and bovine heart, respectively, all other protein kinases were expressed as either GST-fusion or His-tagged proteins (by a person, a person, Dr A. Paterson or a person, in this Division). The expressed proteins all corresponded to the human sequences apart from the rat Rho-dependent protein kinase (ROCK-II) and rat mitogen-activated protein kinase (MAPK) activated kinase-1a (MAPKAP-K1a, also called RSK). GST-fusion proteins were purified on GSH-agarose (Amersham Pharmacia Biotech, Amersham, UK) and His-tagged proteins on Ni-NTA agarose (Qiagen) essentially according to the manufacturer's instructions. All the protein kinases used in this study are available from Upstate Biotechnology Inc. (Lake Placid, N.Y., USA), apart from the α-isoform of calmodulin-dependent protein kinase II (CaMKII), MAPKAP-K3 and PKG. […]
(§2) All protein kinase assays were linear with respect to time. […] All papers were subsequently washed a further three times in phosphoric acid, once in acetone, then dried and counted for radioactivity. […] The plates were then washed six times (five min per wash) in PBS, 0.1% Tween 20 and binding of the phospho-specific antibody detected by incubating the plates with peroxidase-conjugated anti-sheep antibodies (Pierce). […] Signals were quantitated on LAS-1000IR software (FujiFilm). […]

Substrate in data set [2]: CC(C)C[C@H](NC(=O)[C@H](CCCCN)NC(=O)[C@@H](N)CCCCN)C(=O)N[C@@H](CC(N)=O)C(=O)N[C@@H](CCCNC(=N)N)C(=O)N[C@H](C(=O)N[C@@H](CC(C)C)C(=O)N[C@@H](CO)C(=O)N[C@@H](Cc1ccccc1)C(=O)N[C@@H](C)C(=O)N[C@@H](CCC(=O)O)C(=O)N1CCC[C@H]1C(=O)NCC(=O)O)[C@@H](C)O
The description is as above. Type of data set: biochemical, human. The following applies: 30.0 °C.
From the text: as §1, §2

B1: PRAK (Homo sapiens) (protein)
chain: MSEESDMDKAIKETSILEEYSINWTQKLGAGISGPVRVCVKKSTQERFALKILLDRPKARNEVRLHMMCATHPNIVQIIEVFANSVQFPHESSPRARLLIVMEMMEGGELFHRISQHRHFTEKQASQVTKQIALALRHCHLLNIAHRDLKPENLLFKDNSLDAPVKLCDFGFAKIDQGDLMTPQFTPYYVAPQVLEAQRRHQKEKSGIIPTSPTPYTYNKSCDLWSLGVIIYVMLCGYPPFYSKHHSRTIPKDMRRKIMTGSFEFPEEEWSQISEMAKDVVRKLLKVKPEERLTIEGVLDHPWLNSTEALDNVLPSAQLMMDKAVVAGIQQAHAEQLANMRIQDLKVSLKPLHSVNNPILRKRKLLGTKPKDSVYIHDHENGAEDSNVALEKLRDVIAQCILPQAGKGENEDEKLNEVMQEAWKYNRECKLLRDTLQSFSWNGRGFTDKVDRLKLAEIVKQVIEEQTTSHESQ
notes: made in house; host or cells: Sf21 insect cells
For orientation: Km means the substrate concentration at which the rate is half of its maximum. B1: the Km in data set [1] stood at 40 µM.

B2: S6K1 (Homo sapiens; T412E) (protein)
chain: MRRRRRRDGFYPAPDFRDREAEDMAGVFDIDLDQPEDAGSEDELEEGGQLNESMDHGGVGPYELGMEHCEKFEISETSVNRGPEKIRPECFELLRVLGKGGYGKVFQVRKVTGANTGKIFAMKVLKKAMIVRNAKDTAHTKAERNILEEVKHPFIVDLIYAFQTGGKLYLILEYLSGGELFMQLEREGIFMEDTACFYLAEISMALGHLHQKGIIYRDLKPENIMLNHQGHVKLTDFGLCKESIHDGTVTHTFCGTIEYMAPEILMRSGHNRAVDWWSLGALMYDMLTGAPPFTGENRKKTIDKILKCKLNLPPYLTQEARDLLKKLLKRNAASRLGAGPGDAGEVQAHPFFRHINWEELLARKVEPPFKPLLQSEEDVSQFDSKFTRQTPVDSPDDSTLSESANQVFLGFEYVAPSVLES
notes: as for B1
With B2, the Km in data set [2] (other: S6K1, Standard Substrate = LRRASLG) was 6 µM.

B3: SGK1 (Homo sapiens; S422D) (protein)
chain: ISQPQEPELMNANPSPPPSPSQQINLGPSSNPHAKPSDFHFLKVIGKGSFGKVLLARHKAEEVFYAVKVLQKKAILKKKEEKHIMSERNVLLKNVKHPFLVGLHFSFQTADKLYFVLDYINGGELFYHLQRERCFLEPRARFYAAEIASALGYLHSLNIVYRDLKPENILLDSQGHIVLTDFGLCKENIEHNSTTSTFCGTPEYLAPEVLHKQPYDRTVDWWCLGAVLYEMLYGLPPFYSRNTAEMYDNILNKPLQLKPNITNSARHLLEGLLQKDRTKRLGAKDDFMEIKSHVFFSLINWDDLINKKITPPFNPNVSGPNDLRHFDPEFTEEPVPNSIGKSPDSVLVTASVKEAAEAFLGFDYAPPTDSFL
notes: as for B1
For the protein B3, in data set [2] (other: SGK1, Standard Substrate = …), the Km turned out to be 4 µM.
